We go through 2 molecules from article PMC4091690, “A Broadly Conserved G-Protein-Coupled Receptor Kinase Phosphorylation Mechanism Controls Drosophila Smoothened Activity” (PLoS Genetics, 2014).

Experiment [1] has as its target Smo^SD.c12D (Smo^SD with Gprk2 phosphorylation clusters 1 and 2 changed to Asp), C-terminally tagged with GFP10 or RLucII (UniProt P91682). Description: BRET. The note with it: S2 cells, Luc + GFP10 tagged pair, read off a plot.
Experiment [2] concerns the target T1, Smo^core (Drosophila Smoothened amino acids 1-663), C-terminally tagged with GFP10 (Drosophila, UniProt P91682 32-663).
T1 construct: signal peptide in the construct; Smoothened (Smo), Drosophila melanogaster, amino acids 1-663, truncated just after the third Gprk2 phosphorylation cluster; also called Smo^core-GFP10; source: S2-R+ cells, transfected (pRmHa3.puro, induced with CuSO4), in intact cells; not shown: GFP10, C-terminal, kept
T1 sequence (looked up): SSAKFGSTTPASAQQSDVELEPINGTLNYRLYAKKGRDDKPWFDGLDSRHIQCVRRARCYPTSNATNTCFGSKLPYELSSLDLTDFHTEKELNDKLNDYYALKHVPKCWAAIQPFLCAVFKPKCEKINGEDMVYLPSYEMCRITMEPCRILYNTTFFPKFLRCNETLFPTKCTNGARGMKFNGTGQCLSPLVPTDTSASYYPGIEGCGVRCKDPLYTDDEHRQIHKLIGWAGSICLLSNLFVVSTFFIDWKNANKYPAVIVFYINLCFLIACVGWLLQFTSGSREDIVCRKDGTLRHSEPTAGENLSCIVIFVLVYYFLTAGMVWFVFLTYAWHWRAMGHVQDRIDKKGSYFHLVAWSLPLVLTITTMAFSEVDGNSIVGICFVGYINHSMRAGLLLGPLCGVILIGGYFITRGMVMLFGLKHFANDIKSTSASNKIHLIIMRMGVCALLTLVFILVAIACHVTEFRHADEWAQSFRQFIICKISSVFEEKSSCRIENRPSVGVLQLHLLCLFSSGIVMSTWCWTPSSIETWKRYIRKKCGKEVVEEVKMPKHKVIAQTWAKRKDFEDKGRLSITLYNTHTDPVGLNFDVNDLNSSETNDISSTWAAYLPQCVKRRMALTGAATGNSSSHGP
Description: FRET or BRET; BRET in intact S2-R+ cells between C-terminally GFP10-tagged truncated Smo variants (300 ng) and Cos2-RLucII (75 ng), myc-Fu (75 ng) co-transfected; cells treated with control (beta-gal), gprk2 or smo 3'UTR dsRNA, without or with myc-Gprk2; net BRET. The conditions noted are these: partners not purified. A general note: Bioluminescence resonance energy transfer reports proximity on the nanometre scale.

With “Smo^SD (PKA- and CKI-phosphomimetic form of Drosophila Smoothened), C-terminally tagged with GFP10 or Renilla luciferase II (from UniProt P91682) S604D; T606D; T610D; T612D; S626D; S627D; T629D; S633D; S634D; T635D”, the response in experiment [1] (dsRNA targeting β-gal (control), parent: est. 100) was 170; in experiment [1] (gprk2 dsRNA, parent: est. 67) it was 160.

B1: Costal-2 (Cos2), C-terminally tagged with Renilla luciferase II (natural protein, Drosophila, UniProt O16844 1-1201, looked up)
chain: MEIPIQVAVRIFPHRELKDLLRSFGPTEPKKDAQAVDEGADSKDSEAQVPAAEKDNPSISETDPNGNAEQDSAADSKTIPDANGNDSGQKDYPDSAYCVQAIPISASALGLPSALPGGDPMDSIAAGLIQVGPHTVPVTHALPSSSSQEQVYHQTVFPLITLFLEGFDASVVTYGQRGQGKSYTLYGNVQDPTLTDSTEGVVQLCVRDIFSHISLHPERTYAINVGFVEICGGDVCDLLGMGNIHCTNVDAVFHWLQVGLSARQSLPAHTLFTLTLEQQWVSKEGLLQHRLSTASFSDLCGTERCGDQPPGRPLDAGLCMLEQVISTLTDPGLMYGVNGNIPYGQTTLTTLLKDSFGGRAQTLVILCVSPLEEHLPETLGNLQFAFKVQCVRNFVIMNTYSDDNTMIVQPAEPVPESNSSAGPLSQAGPGDNFGLQFAASQWSKLVTNAEGLFSKLIDSKLITEVEKEQIEEWLFLKQECEECLSSTEAMRQQKQLVPILEAEEPEDVNSEAANSESPNSDNENDTDNESHRPDLDDKIESLMEEFRDKTDALILEKHAEYLSKHPKAVMQSQDREIEAQPPEENGDDRKVSIGSRRRSVQPGASLSTAELAMLNRVASQQPPPPIDPESVVDPLESSSGEGIRQAALAAAAATAPIEQLQKKLRKLVAEIEGKQRQLREIEETIQVKQNIIAELVKNSDTRSHAKQRFHKKRAKLEAECDKAKKQLGKALVQGRDQSEIERWTTIIGHLERRLEDLSSMKHIAGESGQKVKKLQQSVGESRKQADDLQKKLRKECKLRCQMEAELAKLRESRETGKELVKAQGSPEQQGRQLKAVQARITHLNHILREKSDNLEEQPGPEQQETLRHEIRNLRGTRDLLLEERCHLDRKLKRDKVLTQKEERKLLECDEAIEAIDAAIEFKNEMITGHRSIDTSDRIQREKGEQMLMARLNRLSTEEMRTLLYKYFTKVIDLRDSSRKLELQLVQLERERDAWEWKERVLSNAVRQARLEGERNAVLLQRQHEMKLTLMLRHMAEETSASSASYGERALAPACVAPPVQASSDFDYDHFYKGGGNPSKALIKAPKPMPTGSALDKYKDKEQRSGRNIFAKFHVLTRYASAAAAGSSGSTAEESTALIESTTTATATTTSTTTTGAVGKVKDKALVSFRPEQLKRLMPAPTATKVTRQKNKIIIQDASRRN
notes: Costal-2 (Cos2), kinesin-like protein, Drosophila; also called Cos2-Luc; Cos2-RLucII; source: S2-R+ cells, transfected (pRmHa3.puro, induced with CuSO4), in intact cells; not shown: RLucII, C-terminal, kept
With B1, in experiment [2], the “fold increase of net BRET on Gprk2 overexpression against control cells” value is above 2.2 fold.
